Measured values as given in the supplement of paper PMC9170038.

Test system: MS2 coat protein
Assay: apparent KD of MS2 coat protein; designed switch direction (-1 OFF switch, 1 ON switch): -1; higher = weaker reporter binding
How it was run: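 Designed RNA switches were transcribed on Illumina chips by stalled E. coli RNA polymerase and titrated with SNAP-549-labelled MS2 coat protein from 0.7 or 1.5 nM, doubling to 3 µM. Step length ran from 0.8–1.5 h at the lowest concentration to 10–20 min at the highest. The apparent KD is the median over clusters for each design, from curve-fitted normalised cluster fluorescence.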

[1] = Eterna round: R95, input ligand: microRNA oligo, concentration not stated
[2] = input ligand: microRNA oligo, concentration not stated
[3] = Eterna round: R95, input ligand: FMN 200 uM
[4] = Eterna round: R95, input ligand: none

Sequence: CCGGAAAUGAAGGAUAUAGGAGUCGAUAGACACCUAGAAGGUCAUACAUGAGGAUCACCCAUGUGUCCUACCGG [Fiskers Ex 6 - 78] (puzzle: Exclusion 6)
- apparent KD of MS2 coat protein [1]: 14.9 nM

Sequence: UUUAACGAUGAGGAUAUAUGAUAUCAAAGCAUCAUAGAAGGCAUCACAUGAGGAUCACCCAUGUGAUCUUCUUG [Mat - Exclusion 6 - JL Mod - D28] (Eterna round: R97, puzzle: Exclusion 6)
- apparent KD of MS2 coat protein (input ligand: FMN 200 uM): 94 nM
- apparent KD of MS2 coat protein (input ligand: none): 29.4 nM

Sequence: CACUGGACAGGAUAUGUUCUUGAGCACUUGAGGAUCACCCAAGUCAUCAAGAACUCAGGCACAGAAGGGUUUAUGG [salish99_ex5_r4_013] (Eterna round: R97, puzzle: Exclusion 5)
- apparent KD of MS2 coat protein (input ligand: FMN 200 uM): 38.9 nM
- apparent KD of MS2 coat protein (input ligand: none): 16.9 nM

Sequence: AGGUAACAUGAGGAUCACCCAUGUCAGGAUAUCAGUAAGAUGAGAAUAGAGUAGAGUAUGAGAAGGGACUAUAU [Excluse me! 21 - Jieux - Exclusion 1] (puzzle: Exclusion 1)
- apparent KD of MS2 coat protein [1]: 37.4 nM

Sequence: AACCUCGGAGGAUAUACCUACCGAUUCACAAGUGUCACAUCACAUGAGGAUCACCCAUGUAGAAGGUCGAGGCG [Onorzais] (puzzle: Exclusion 2)
- apparent KD of MS2 coat protein [1]: 30.1 nM

Sequence: AACUUCUGAGGAUAUACAUAGAUUUACAUGAGGAUCACCCAUGUUCCUCUAUGUAUAAAUGUAGAAGGCAGAAGAA [JL-ex5-4.37 Malcolm mod] (Eterna round: R97, puzzle: Exclusion 5)
- apparent KD of MS2 coat protein (input ligand: FMN 200 uM): 88.6 nM
- apparent KD of MS2 coat protein (input ligand: none): 18.3 nM

Sequence: AAAUAGGGAGGAUAUCCAAUAUAUGACAUGAGGAUCACCCAUGUUUCCACUCGUACCUCCGGAGAAGGCCCAUAAA [Ex5 #3] (Eterna round: R97, puzzle: Exclusion 5)
- apparent KD of MS2 coat protein (input ligand: FMN 200 uM): 20.9 nM
- apparent KD of MS2 coat protein (input ligand: none): 21.8 nM

Sequence: AGCCAUCGUGUGAGGAUAUCGAUAAGUUCGAGUUUCGAGAAGGCACAUGAGGAUCACCCAUGUCGUGAAAGAAA [BmEX4 A.28] (Eterna round: R97, puzzle: Brourd's mod of Exclusion 4)
- apparent KD of MS2 coat protein (input ligand: FMN 200 uM): 75.8 nM
- apparent KD of MS2 coat protein (input ligand: none): 244 nM

Sequence: AUUUUAAUAUAGGAUAUCGAAAUUAUUAUUUAACGAGAAGGAUGAACAUGAGGAUCACCCAUGUGGUAUCAUGG [Mat - Exclusion 6 - JL Mod - D31] (puzzle: Exclusion 6)
- apparent KD of MS2 coat protein [1]: 192 nM

Sequence: CCAGUGUGCUUCAGGACAUGAGGAUCACCCAUGUUCGCAAAAUAGGAUAUUGGGUGUAGGCCGCGCAAGAAGGGUUAUGCGAAC [Disobeus] (Eterna round: R96, puzzle: Exclusion NG 3)
- apparent KD of MS2 coat protein (input ligand: FMN 200 uM): 117 nM
- apparent KD of MS2 coat protein [2]: 79.8 nM
- apparent KD of MS2 coat protein (input ligand: none): 83.4 nM

Sequence: CCGAGGUGGCGGUCCUAUGACAUGAGGAUCACCCAUGUACCUCGCCACGAGCCUUUUGCUCAUCUUAUAAUUCUCGG [Bienve] (puzzle: Sensor v3, turn-off variant 1)
- apparent KD of MS2 coat protein [3]: 17.4 nM
- apparent KD of MS2 coat protein [1]: 20.6 nM
- apparent KD of MS2 coat protein [4]: 17.2 nM

Sequence: AUGUGCACGCUGCGGUCCUACAUGAGGAUCACCCAUGUGGUCUGGUGGCGUGGGUCACCGGACUUGGCUCGUCUUGU [salish99_S_TOV1_R5_056] (Eterna round: R97, puzzle: Sensor, turn-off variant 1)
- apparent KD of MS2 coat protein (input ligand: FMN 200 uM): 33.7 nM
- apparent KD of MS2 coat protein (input ligand: none): 40.1 nM

Sequence: GGAAAGCAAGGAUAUACAAGUAAACGACGGAAAGUAGAGAGACAUGAGGAUCACCCAUGUAGAAGGUGCGAGAG [JR_Exclu2_Sub035] (puzzle: Exclusion 2)
- apparent KD of MS2 coat protein [3]: 19 nM
- apparent KD of MS2 coat protein [1]: 26.9 nM
- apparent KD of MS2 coat protein [4]: 20.1 nM

Sequence: AGUACUAACACGAUAGUGUUAGUACUAUAAGCUUGUGUUACAUGAGGAUCACCCAUGUCCUCAUAAGCUCGUCUUAA [Mat - Sensor v3 - Turn-off var 2 - D65] (puzzle: Sensor v3, turn-off variant 2)
- apparent KD of MS2 coat protein [3]: 36.9 nM
- apparent KD of MS2 coat protein [1]: 420 nM
- apparent KD of MS2 coat protein [4]: 38.1 nM

Sequence: CGAUGAGGAGUGAGGAUAUCGUGUUCGAAAGAACGUGAGAAGGCACAUGAGGAUCACCCAUGUGAUCCUUGUCG [Omei Ex4B A9] (Eterna round: R97, puzzle: Brourd's mod of Exclusion 4)
- apparent KD of MS2 coat protein (input ligand: FMN 200 uM): 57.2 nM
- apparent KD of MS2 coat protein (input ligand: none): 30.4 nM

Sequence: AAUACAAGCAAGAUCCUAAACAUGAGGAUCACCCAUGUGCUCGUCUUAUAAAGUACUAUCACGAAAGUGAUAGUACA [Sensor 3, v1 - 63] (puzzle: Sensor v3, turn-off variant 1)
- apparent KD of MS2 coat protein [3]: 213 nM
- apparent KD of MS2 coat protein [1]: 438 nM
- apparent KD of MS2 coat protein [4]: 234 nM

Sequence: AUAGUCUGGCAAGGAUAUAGGAAAGGAAGUGUACUAGAAGGUGCGCAGACAUGAGGAUCACCCAUGUGAGCCGACGAAAUAAUA [PowerStrip EXNG 1.17] (Eterna round: R96, puzzle: Exclusion NG 1)
- apparent KD of MS2 coat protein (input ligand: FMN 200 uM): 523 nM
- apparent KD of MS2 coat protein [2]: 88.5 nM
- apparent KD of MS2 coat protein (input ligand: none): 141 nM

Sequence: GAUUAUGCGAGCUUUAGGGACAUGAGGAUCACCCAUGUUCGUCUUAUUGGUCUGAAUACACUGACAUACCUAAAUCU [JMF 56] (puzzle: Sensor v3, turn-off variant 1)
- apparent KD of MS2 coat protein [3]: 16.6 nM
- apparent KD of MS2 coat protein [1]: 21.8 nM
- apparent KD of MS2 coat protein [4]: 15.9 nM

Sequence: ACAUGAGGAUCACCCAUGUCUGGCUGGUCUGCUCCGGCUGUUGAGGAUAUAGUCCGGUGUUCGCGCUAGAAGGCGAGGGCUGGA [Aenatbe mod 42] (Eterna round: R96, puzzle: Exclusion NG 3)
- apparent KD of MS2 coat protein (input ligand: FMN 200 uM): 42.5 nM
- apparent KD of MS2 coat protein [2]: 21.9 nM
- apparent KD of MS2 coat protein (input ligand: none): 48.4 nM

Sequence: CUGAUGUCAGGAUAUCGGUGGCUCACUAAUGUGUGCCAGACCGAGAAGGGACAUGAGGAUCACCCAUGUCUUUA [Exclusion 4 (Mod5b of #36 by Marzena11)] (Eterna round: R97, puzzle: Exclusion 4)
- apparent KD of MS2 coat protein (input ligand: FMN 200 uM): 42.4 nM
- apparent KD of MS2 coat protein (input ligand: none): 26.2 nM

Sequence: UUGCGAAGAGGAUAUUUUGUCAUCAACAUGAGGAUCACCCAUGUCUUCCUUUAUGCUAUAGAAGAAGGCUUCCAGU [Eternabot (L2) Solution 63] (Eterna round: R97, puzzle: Exclusion 5)
- apparent KD of MS2 coat protein (input ligand: FMN 200 uM): 59.9 nM
- apparent KD of MS2 coat protein (input ligand: none): 37.1 nM

Sequence: UCUAGUUGGCAAGGAUAUCCUACAUUGUUCUGGCCCGGGCAUGCUACAUGAGGAUCACCCAUGUGGGAGAAGGUGCGUCAUUGC [Design 22] (Eterna round: R96, puzzle: Exclusion NG 2)
- apparent KD of MS2 coat protein (input ligand: FMN 200 uM): 70.9 nM
- apparent KD of MS2 coat protein [2]: 50.5 nM
- apparent KD of MS2 coat protein (input ligand: none): 82.1 nM

Sequence: CGUCUGUAAGGAUAUGGUAGCAUCAACAUGAGGAUCACCCAUGUUACAUGGGACUAGUGAUUAGAAGGUACGAACG [EX5 #56] (Eterna round: R97, puzzle: Exclusion 5)
- apparent KD of MS2 coat protein (input ligand: FMN 200 uM): 58.5 nM
- apparent KD of MS2 coat protein (input ligand: none): 80.6 nM

Sequence: GAGUGACAUGAGGAUCACCCAUGUAAGGAUAUACGGUUGGUAGAGAGAGGGAAAAGAGGUAGAAGGUACGAAGG [JR_Exclu1_Sub056] (puzzle: Exclusion 1)
- apparent KD of MS2 coat protein [3]: 43.9 nM
- apparent KD of MS2 coat protein [1]: 56 nM
- apparent KD of MS2 coat protein [4]: 76.2 nM

Sequence: UUUAAUUUUUUUUUUUUACAAGCUUUUUGCUCGUCUUAUACAUGAGGAUCACCCAUGUGGAUGGGAGAUAAAUUAUC [JMF 19] (puzzle: Sensor v3, turn-off variant 2)
- apparent KD of MS2 coat protein [3]: 30.9 nM
- apparent KD of MS2 coat protein [1]: 164 nM
- apparent KD of MS2 coat protein [4]: 36.4 nM

Sequence: AUUCCUUGUGUUAGGAUAUGUCACUACCGUAUGCGACAGAAGGAACAUGAGGAUCACCCAUGUGAGUUAGCCGA [Usened] (puzzle: Brourd's mod of Exclusion 4)
- apparent KD of MS2 coat protein [1]: 52.4 nM

Sequence: UCAUGGGAGCGAGGAUAUAGCCCAUGUGAAGAACUAGAAGGCGCAGACAUGAGGAUCACCCAUGUGUUCAUGAGGAGGUGGACA (Eterna round: R96, puzzle: Exclusion NG 1)
- apparent KD of MS2 coat protein (input ligand: FMN 200 uM): 215 nM
- apparent KD of MS2 coat protein [2]: 82.5 nM
- apparent KD of MS2 coat protein (input ligand: none): 83.4 nM

Sequence: CAUGAUUGACGAGGAUAUUGUUCUACAUCACGACGAGAAGGCGUCUGUCACAUGAGGAUCACCCAUGUGAGACUGGUGAAUGAG [Ex NG1 #81] (Eterna round: R96, puzzle: Exclusion NG 1)
- apparent KD of MS2 coat protein (input ligand: FMN 200 uM): 36.4 nM
- apparent KD of MS2 coat protein [2]: 17.1 nM
- apparent KD of MS2 coat protein (input ligand: none): 20.4 nM

Sequence: AAGAAACAUGAGGAUCACCCAUGUGAGGAUAUGUAAAAUAAAAGAAAAUAAAGAAGAAACAGAAGGCACAAAGG [Mat - Mod of Hog D22] (puzzle: Exclusion 1)
- apparent KD of MS2 coat protein [3]: 40.3 nM
- apparent KD of MS2 coat protein [1]: 36.1 nM
- apparent KD of MS2 coat protein [4]: 33.7 nM

Sequence: CAUGUGUAAGGAUAUGACAAUGGUAUCGAAAGAUACCAUUGUCAGAAGGUACAUGAGGAUCACCCAUGUAGAUC [Ex4-3: 19] (puzzle: Exclusion 4)
- apparent KD of MS2 coat protein [3]: 342 nM
- apparent KD of MS2 coat protein [1]: 60.8 nM
- apparent KD of MS2 coat protein [4]: 86.3 nM

Sequence: CCGGGUUAUGUUAGGAUAUGUAGGCCGCAACCGGAACAGAAGGGACAUGAGGAUCACCCAUGUGAUAUUCCCGG [Onxexe] (puzzle: Brourd's mod of Exclusion 4)
- apparent KD of MS2 coat protein [1]: 17.5 nM

Sequence: GCCUUAUCCGUCAGGAUAUACAGCCGCUCCCUGUUGUAGAAGGGACAUGAGGAUCACCCAUGUACGUACCACUG [alecazam7] (Eterna round: R97, puzzle: Brourd's mod of Exclusion 4)
- apparent KD of MS2 coat protein (input ligand: FMN 200 uM): 28.7 nM
- apparent KD of MS2 coat protein (input ligand: none): 22.6 nM

Sequence: UCAAUUAUGACAGGAUAUAGUUUUUGUUUUUCUCUAGAAGGGUCUAUGCACAUGAGGAUCACCCAUGUUCUUUUUAUUUGCAUU [JR_ExcNG1_Sub016] (Eterna round: R96, puzzle: Exclusion NG 1)
- apparent KD of MS2 coat protein (input ligand: FMN 200 uM): 47.5 nM
- apparent KD of MS2 coat protein [2]: 46.1 nM
- apparent KD of MS2 coat protein (input ligand: none): 70.9 nM

Sequence: CGAUGCUCGUGUCCACAUGAGGAUCACCCAUGUCGAGUUAGCGAGGAUAUCGGUAGCACAUAGCACGAGAAGGCGCGAACCUGA [Ex NG3 #28] (Eterna round: R96, puzzle: Exclusion NG 3)
- apparent KD of MS2 coat protein (input ligand: FMN 200 uM): 58.4 nM
- apparent KD of MS2 coat protein [2]: 15.9 nM
- apparent KD of MS2 coat protein (input ligand: none): 22 nM
